Results taken from patent US7998940B2, “Aptamers to von Willebrand factor and their use as thrombotic disease therapeutics” (Archemix Corp., priority 2004, dated 2011).
Positions count from the first letter of the chain named.

B1: AMX237.F9: DNA SELEX 2 aptamer clone (nucleic acid)
DNA: CTACCTACGATCTGACTAGCTTGGTAGCGATTCTGTGGAGCTGCGGTTTGGTCGACGTCAGCTTACTCTCATGTAGTTCC
modifications: DNA, backbone not given here
notes: DNA SELEX 2 aptamer clone
B2: AMX237.F12: DNA SELEX 2 aptamer clone (nucleic acid)
DNA: B1 DNA with C33T
modifications: DNA, backbone not given here
notes: DNA SELEX 2 aptamer clone
B3: AMX237.C9: DNA SELEX 2 aptamer clone (nucleic acid)
DNA: B1 DNA with C28T, T31C, C33T
modifications: DNA, backbone not given here
notes: DNA SELEX 2 aptamer clone
B4: AMX236.H1: DNA SELEX 2 aptamer clone (nucleic acid)
chain: CTACCTACGATCTGACTAGCCTCAGATTGACTCCGGCCGACTTGTTTTAATCTTCTGAGTGCTTACTCTCATGTAGTTCC
modifications: DNA, backbone not given here
notes: DNA SELEX 2 aptamer clone
B5: AMX236.G1: DNA SELEX 2 aptamer clone (nucleic acid)
chain: B4 chain with C38T
modifications: DNA, backbone not given here
notes: DNA SELEX 2 aptamer clone
B6: AMX238.E7: DNA SELEX 2 aptamer clone (nucleic acid)
DNA: CTACCTACGATCTGACTAGCGTGCAGTGCCTATTTTAGGCCGTGCGGTGCCTCCGTCACGCTTACTCTCATGTAGTTCC
modifications: DNA, backbone not given here
notes: DNA SELEX 2 aptamer clone
B7: AMX237.C11: DNA SELEX 2 aptamer clone (nucleic acid)
DNA: B6 DNA with T35C, C59T
modifications: DNA, backbone not given here
notes: DNA SELEX 2 aptamer clone
B8: AMX238.F3: DNA SELEX 2 aptamer clone (nucleic acid)
DNA: B6 DNA with C40T, T48G
modifications: DNA, backbone not given here
notes: DNA SELEX 2 aptamer clone
B9: AMX238.F2: DNA SELEX 2 aptamer clone (nucleic acid)
DNA: B6 DNA with G21A, T31C, T35C, C59T
modifications: DNA, backbone not given here
notes: DNA SELEX 2 aptamer clone
B10: AMX238.A12: DNA SELEX 2 aptamer clone (nucleic acid)
DNA: CTACCTACGATCTGACTAGCCAGTTCTGGGAAAAATTATTTTTTTATTTCGATCGTATATGCTTACTCTCATGTAGTTCC
modifications: DNA, backbone not given here
notes: DNA SELEX 2 aptamer clone
B11: AMX236.C9: DNA SELEX 2 aptamer clone (nucleic acid)
chain: B10 DNA with A59T
modifications: DNA, backbone not given here
notes: DNA SELEX 2 aptamer clone
B12: AMX237.H5: DNA SELEX 2 aptamer clone (nucleic acid)
DNA: CTACCTACGATCTGACTAGCTCCAGTGTTTCATTTAATAACCGTGCGGTGCCTCCGTGAGCTTACTCTCATGTAGTTCC
modifications: DNA, backbone not given here
notes: DNA SELEX 2 aptamer clone
B13: AMX238.D5: DNA SELEX 2 aptamer clone (nucleic acid)
DNA: B12 DNA with C31T, T35C, C51T
modifications: DNA, backbone not given here
notes: DNA SELEX 2 aptamer clone
B14: AMX237.B4: DNA SELEX 2 aptamer clone (nucleic acid)
DNA: B12 DNA with T34C, T35C, C52T
modifications: DNA, backbone not given here
notes: DNA SELEX 2 aptamer clone
B15: AMX238.D8: DNA SELEX 2 aptamer clone (nucleic acid)
DNA: B12 DNA with C31T, T34C, T35C, T38C
modifications: DNA, backbone not given here
notes: DNA SELEX 2 aptamer clone
B16: AMX237.E9: DNA SELEX 2 aptamer clone (nucleic acid)
DNA: B12 DNA with C31T, A32G, T34C
modifications: DNA, backbone not given here
notes: DNA SELEX 2 aptamer clone
B17: AMX237.E2: DNA SELEX 2 aptamer clone (nucleic acid)
DNA: B12 DNA with T34C
modifications: DNA, backbone not given here
notes: DNA SELEX 2 aptamer clone
B18: AMX236.B3: DNA SELEX 2 aptamer clone (nucleic acid)
chain: CTACCTACGATCTGACTAGCCTTACCTATTCCCTTCTGCGGAATACGTCGAGTACTATGCTTACTCTCATGTAGTTCC
modifications: DNA, backbone not given here
notes: DNA SELEX 2 aptamer clone
B19: AMX237.D11: DNA SELEX 2 aptamer clone (nucleic acid)
DNA: CTACCTACGATCTGACTAGCTCCAGTGTTTTATATAATAACCGTGCGGTGCCTCCGTGATGCTTACTCTCATGTAGTTCC
modifications: DNA, backbone not given here
notes: DNA SELEX 2 aptamer clone
B20: AMX238.G6: DNA SELEX 2 aptamer clone (nucleic acid)
DNA: B19 DNA with A34C, T35C, T49G
modifications: DNA, backbone not given here
notes: DNA SELEX 2 aptamer clone
B21: AMX236.F8: DNA SELEX 2 aptamer clone (nucleic acid)
chain: B19 DNA with A34C, T35C
modifications: DNA, backbone not given here
notes: DNA SELEX 2 aptamer clone
B22: AMX237.F6: DNA SELEX 2 aptamer clone (nucleic acid)
DNA: B19 DNA with A34C
modifications: DNA, backbone not given here
notes: DNA SELEX 2 aptamer clone
B23: AMX237.C7: DNA SELEX 2 aptamer clone (nucleic acid)
DNA: B19 DNA with A34T, T35C
modifications: DNA, backbone not given here
notes: DNA SELEX 2 aptamer clone
B24: AMX236.F7: DNA SELEX 2 aptamer clone (nucleic acid)
chain: CTACCTACGATCTGACTAGCCCCCACTTATCGTGTACCTTATGATATGTCGAATACTCTTGCTTACTCTCATGTAGTTCC
modifications: DNA, backbone not given here
notes: DNA SELEX 2 aptamer clone
B25: AMX238.F7: DNA SELEX 2 aptamer clone (nucleic acid)
DNA: CTACCTACGATCTGACTAGCAAGGGGATTGGCTCCGGGTCTGGCGTGCTTGGCATCTTTGGCTTACTCTCATGTAGTTCC
modifications: DNA, backbone not given here
notes: DNA SELEX 2 aptamer clone
B26: AMX238.D9: DNA SELEX 2 aptamer clone (nucleic acid)
DNA: CTACCTACGATCTGACTAGCCAGTTCTGGGAAAAATCATTTTTTATTTCGATCGTATTTGCTTACTCTCATGTAGTTCC
modifications: DNA, backbone not given here
notes: DNA SELEX 2 aptamer clone
B27: AMX237.F10: DNA SELEX 2 aptamer clone (nucleic acid)
DNA: CTACCTACGATCTGACTAGCGTGCAGTGCCCATTCCAGGCCGTGCGGTATCCTCCGTCACGCTTACTCTCATGTAGTTCC
modifications: DNA, backbone not given here
notes: DNA SELEX 2 aptamer clone
B28: AMX237.C5: DNA SELEX 2 aptamer clone (nucleic acid)
DNA: B27 DNA with C31T, T34C, C35T
modifications: DNA, backbone not given here
notes: DNA SELEX 2 aptamer clone
B29: AMX236.H2: DNA SELEX 2 aptamer clone (nucleic acid)
chain: B27 DNA with C31T, T34C, T50G
modifications: DNA, backbone not given here
notes: DNA SELEX 2 aptamer clone

How the values were obtained:
[1] = tested on: rabbit vWF A1 domain (SEQ ID NO 6); assay: 3-point dot blot screen, rabbit vWF A1 domain; type: binding; conditions: 3-point dot blot screen, 20 nM rabbit vWF A1 domain; ratio of fraction of aptamer bound with target protein to fraction bound without protein
Sequence of rabbit vWF A1 domain (SEQ ID NO 6) (as listed by the source): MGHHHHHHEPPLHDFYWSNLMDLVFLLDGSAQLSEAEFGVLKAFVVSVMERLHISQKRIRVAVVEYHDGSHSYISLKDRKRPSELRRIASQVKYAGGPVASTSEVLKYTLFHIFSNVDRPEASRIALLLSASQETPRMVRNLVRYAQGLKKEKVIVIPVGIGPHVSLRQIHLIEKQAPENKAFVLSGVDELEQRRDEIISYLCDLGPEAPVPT
Procedure, shortened: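 Rabbit vWF A1 domain binding was screened by dot blot using three conditions: no target protein, human vWF, and rabbit vWF A1 domain at 100 nM (20 nM in the screen run twice). Radiolabeled aptamer bound to nitrocellulose was quantified, and results are expressed as the ratio of bound fraction with protein to bound fraction without protein.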

full length human vWF = assay: 3-point dot blot screen, full length human vWF; type: binding; conditions: 20 nM full length human vWF, ratio of fraction of aptamer bound with target protein to fraction bound without protein
Excerpt: When a significant positive ratio of binding of DNA in the presence of human or rabbit vWF A1 domain versus in the absence of protein was seen, the pools were cloned using the TOPO TA cloning kit (Invitrogen Cat. #45-0641, Carlsbad, Calif.) according to the manufacturer's instructions. Round 7 and 11 pool templates were cloned and sequenced (218 total sequences), producing 146 unique clones within 12 sequence families of which sequences from six families show vWF target binding activity. All unique clones were assayed twice in a 3-point dot blot screen (no protein target control, 20 nM full length human vWF (Calbiochem Cat. #681300, La Jolla, Calif.), or 20 nM rabbit vWF A1 domain. The data is presented in the third and fourth columns of Table 17 below as the ratio of the fraction of the aptamer bound to the nitrocellulose in the presence of the target protein to the fraction of aptamer bound in the absence of the target protein.

Row | Molecule | Screen Rabbit/No Protein [1] | Screen- Human/No Protein (full length human vWF)
1 | B1 | 2.31 | 2.21
2 | B2 | 2.08 | 1.95
3 | B3 | 2.19 | 2.05
4 | B4 | 1.14 | 1.10
5 | B5 | 1.51 | 1.47
6 | B6 | 2.83 | 3.02
7 | B7 | 1.95 | 2.04
8 | B8 | 2.72 | 2.83
9 | B9 | 2.76 | 2.84
10 | B10 | 0.99 | 1.23
11 | B11 | 1.00 | 1.24
12 | B12 | 1.61 | 1.63
13 | B13 | 1.40 | 1.46
14 | B14 | 1.38 | 1.42
15 | B15 | 1.97 | 2.02
16 | B16 | 2.06 | 2.13
17 | B17 | 1.61 | 1.61
18 | B18 | 1.41 | 1.54
19 | B19 | 1.17 | 1.16
20 | B20 | 1.22 | 1.25
21 | B21 | 1.13 | 1.14
22 | B22 | 1.21 | 1.20
23 | B23 | 1.16 | 1.15
24 | B24 | 1.20 | 1.18
25 | B25 | 1.88 | 1.20
26 | B26 | 0.97 | 1.22
27 | B27 | 2.90 | 2.90
28 | B28 | 2.36 | 2.55
29 | B29 | 2.06 | 2.12
